Molecular target: T1, NlFMD-F (female-specific isoform, SR-rich protein) (Nilaparvata lugens, UniProt A0A974LNP1 1-613)
T1 sequence: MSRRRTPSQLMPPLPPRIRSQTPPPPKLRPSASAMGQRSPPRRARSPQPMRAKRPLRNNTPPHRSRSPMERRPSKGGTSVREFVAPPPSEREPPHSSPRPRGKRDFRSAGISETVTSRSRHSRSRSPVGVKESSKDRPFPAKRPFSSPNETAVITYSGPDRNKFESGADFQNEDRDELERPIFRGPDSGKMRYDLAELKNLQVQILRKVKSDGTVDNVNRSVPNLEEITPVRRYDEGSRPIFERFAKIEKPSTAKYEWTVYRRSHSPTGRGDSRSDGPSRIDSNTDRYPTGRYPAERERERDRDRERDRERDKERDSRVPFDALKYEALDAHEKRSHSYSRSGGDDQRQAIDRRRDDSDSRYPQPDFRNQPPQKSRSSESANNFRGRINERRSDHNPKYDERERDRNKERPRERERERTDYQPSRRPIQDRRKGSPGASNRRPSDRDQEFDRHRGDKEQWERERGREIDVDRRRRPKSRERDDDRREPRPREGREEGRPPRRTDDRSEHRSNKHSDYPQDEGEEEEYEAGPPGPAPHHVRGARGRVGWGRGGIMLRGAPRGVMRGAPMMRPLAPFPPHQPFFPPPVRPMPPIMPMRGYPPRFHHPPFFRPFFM
Test: MST

Does GAAGAAGAA (ssRNA) [GAAGAAGAA repeat (RAAGAA motif)] bind?
Result: no binding

— article PMC8626073
